target: T1, PUF4 RNA-binding domain (Saccharomyces cerevisiae, UniProt P25339 537-888); test: Mg; RNA-MaP; 20 mM Na-HEPES pH 7.4, 30 mM KOAc, 0.75 mM MgCl2, 0.1% Tween-20, 5% glycerol, 0.1 mg/mL BSA, 2 mM DTT; 25 C; 0.0125-409.6 nM protein; details: tags: N-His6-TEV cleaved; C-SNAP kept, Cy3B-labelled; label: tethered on chip by stalled RNA polymerase
T1 sequence: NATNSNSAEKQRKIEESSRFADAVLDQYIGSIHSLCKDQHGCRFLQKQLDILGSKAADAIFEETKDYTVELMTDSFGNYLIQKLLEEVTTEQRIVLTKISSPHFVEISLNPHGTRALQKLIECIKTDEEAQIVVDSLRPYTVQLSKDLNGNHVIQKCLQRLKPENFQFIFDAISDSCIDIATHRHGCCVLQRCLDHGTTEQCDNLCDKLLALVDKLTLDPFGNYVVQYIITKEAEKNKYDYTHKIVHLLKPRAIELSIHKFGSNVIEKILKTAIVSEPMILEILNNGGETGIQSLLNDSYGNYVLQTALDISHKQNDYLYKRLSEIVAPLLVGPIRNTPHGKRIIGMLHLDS

Binder	Kd
Ic_S2_P4E.1_K4.1_C4.1_H4.1_A4.1_[T5G]_[A6T]_[T7G]_F4.1_[T8C]_[A9T]_T4.1 (ssRNA) RNA: UUUGAUUAAUAUGAUAUCGUUCUUUCUUGUAGUGCUUUCUUUCUCGAUAUCAUAUUAAUCUUU	478 nM
Ic_S2_P4E.1_K4.1_C4.1_H4.1_A4.1_[T5C]_[A6G]_[T7G]_F4.1_[T8C]_[A9C]_T4.1 (ssRNA) RNA: UUUGAUUAAUAUGAUAUCGUUCUUUCUUGUACGGCCUUCUUUCUCGAUAUCAUAUUAAUCUUU	830 nM
Ic_S2_P4E.1_K4.1_C4.1_H4.1_A4.1_[T5C]_[A6G]_[T7C]_F4.1_[T8C]_T4.1 (ssRNA) RNA: UUUGAUUAAUAUGAUAUCGUUCUUUCUUGUACGCCAUUCUUUCUCGAUAUCAUAUUAAUCUUU	22.8 nM
Ic_S2_P4E.1_K4.1_C4.1_H4.1_A4.1_[T5G]_[A6C]_F4.1_[T8C]_[A9G]_T4.1 (ssRNA) RNA: UUUGAUUAAUAUGAUAUCGUUCUUUCUUGUAGCUCGUUCUUUCUCGAUAUCAUAUUAAUCUUU	988 nM
Ic_S2_P4E.1_K4.1_C4.1_H4.1_A4.1_[T5G]_[A6T]_[T7C]_F4.1_[A9C]_T4.1 (ssRNA) RNA: UUUGAUUAAUAUGAUAUCGUUCUUUCUUGUAGUCUCUUCUUUCUCGAUAUCAUAUUAAUCUUU	149 nM
Ic_S2_P4E.1_K4.1_C4.1_H4.1_A4.1_[T5G]_[A6T]_[T7A]_F4.1_[T8G]_[A9T]_T4.1 (ssRNA) RNA: UUUGAUUAAUAUGAUAUCGUUCUUUCUUGUAGUAGUUUCUUUCUCGAUAUCAUAUUAAUCUUU	984 nM
Ic_S2_P4E.1_K4.1_C4.1_H4.1_A4.1_[T5G]_[A6T]_F4.1_[T8C]_[A9C]_T4.1 (ssRNA) RNA: UUUGAUUAAUAUGAUAUCGUUCUUUCUUGUAGUUCCUUCUUUCUCGAUAUCAUAUUAAUCUUU	257 nM
Ic_S2_P4E.1_K4.1_C4.1_H4.1_A4.1_[T5G]_[A6T]_F4.1_[T8A]_[A9T]_T4.1 (ssRNA) RNA: UUUGAUUAAUAUGAUAUCGUUCUUUCUUGUAGUUAUUUCUUUCUCGAUAUCAUAUUAAUCUUU	148 nM
Ic_S2_P4E.1_K4.1_C4.1_H4.1_A4.1_[T5G]_[A6C]_F4.1_[T8C]_T4.1 (ssRNA) RNA: UUUGAUUAAUAUGAUAUCGUUCUUUCUUGUAGCUCAUUCUUUCUCGAUAUCAUAUUAAUCUUU	266 nM
Ic_S2_P4E.1_K4.1_C4.1_H4.1_A4.1_[T5G]_[A6T]_F4.1_[A9G]_T4.1 (ssRNA) RNA: UUUGAUUAAUAUGAUAUCGUUCUUUCUUGUAGUUUGUUCUUUCUCGAUAUCAUAUUAAUCUUU	95.3 nM
Ic_S2_P4E.1_K4.1_C4.1_H4.1_A4.1_[T5G]_[A6C]_[T7A]_F4.1_T4.1 (ssRNA) RNA: UUUGAUUAAUAUGAUAUCGUUCUUUCUUGUAGCAUAUUCUUUCUCGAUAUCAUAUUAAUCUUU	1.41 nM
Ic_S2_P4E.1_K4.1_C4.1_H4.1_A4.1_[T5G]_[A6T]_[T7C]_F4.1_[A9T]_T4.1 (ssRNA) RNA: UUUGAUUAAUAUGAUAUCGUUCUUUCUUGUAGUCUUUUCUUUCUCGAUAUCAUAUUAAUCUUU	41.9 nM
Ic_S2_P4E.1_K4.1_C4.1_H4.1_A4.1_[T5G]_[A6C]_F4.1_[T8A]_T4.1 (ssRNA) RNA: UUUGAUUAAUAUGAUAUCGUUCUUUCUUGUAGCUAAUUCUUUCUCGAUAUCAUAUUAAUCUUU	111 nM
Ic_S2_P4E.1_K4.1_C4.1_H4.1_A4.1_[T5G]_[A6T]_[T7C]_F4.1_[T8C]_[A9T]_T4.1 (ssRNA) RNA: UUUGAUUAAUAUGAUAUCGUUCUUUCUUGUAGUCCUUUCUUUCUCGAUAUCAUAUUAAUCUUU	121 nM
Ic_S2_P4E.1_K4.1_C4.1_H4.1_A4.1_[T5G]_[A6T]_[T7A]_F4.1_[A9T]_T4.1 (ssRNA) RNA: UUUGAUUAAUAUGAUAUCGUUCUUUCUUGUAGUAUUUUCUUUCUCGAUAUCAUAUUAAUCUUU	26.4 nM
Ic_S2_P4E.1_K4.1_C4.1_H4.1_A4.1_[T5G]_[A6T]_F4.1_[T8C]_[A9G]_T4.1 (ssRNA) RNA: UUUGAUUAAUAUGAUAUCGUUCUUUCUUGUAGUUCGUUCUUUCUCGAUAUCAUAUUAAUCUUU	550 nM
Ic_S2_P4E.1_K4.1_C4.1_H4.1_A4.1_[T5G]_[A6T]_[T7C]_F4.1_[T8G]_[A9C]_T4.1 (ssRNA) RNA: UUUGAUUAAUAUGAUAUCGUUCUUUCUUGUAGUCGCUUCUUUCUCGAUAUCAUAUUAAUCUUU	598 nM
Ic_S2_P4E.1_K4.1_C4.1_H4.1_A4.1_[T5G]_[A6T]_[T7C]_F4.1_[T8G]_[A9T]_T4.1 (ssRNA) RNA: UUUGAUUAAUAUGAUAUCGUUCUUUCUUGUAGUCGUUUCUUUCUCGAUAUCAUAUUAAUCUUU	288 nM
Ic_S2_P4E.1_K4.1_C4.1_H4.1_A4.1_[T5G]_[A6T]_[T7C]_F4.1_T4.1 (ssRNA) RNA: UUUGAUUAAUAUGAUAUCGUUCUUUCUUGUAGUCUAUUCUUUCUCGAUAUCAUAUUAAUCUUU	4.56 nM
Ic_S2_P4E.1_K4.1_C4.1_H4.1_A4.1_[T5C]_[A6G]_[T7C]_F4.1_[T8G]_[A9C]_T4.1 (ssRNA) RNA: UUUGAUUAAUAUGAUAUCGUUCUUUCUUGUACGCGCUUCUUUCUCGAUAUCAUAUUAAUCUUU	573 nM
UCUCUUUGCAUGUAUCUCUU (ssRNA) [Ib_S1_P3E.1_K3.1_C3.1_H3.1_[T3C]_A3.1_[A6G]_F3.1_T3.1]	535 nM
UCUCUUUGUGUGUAUCUCUU (ssRNA) [Ib_S1_P3E.1_K3.1_C3.1_H3.1_[A4G]_A3.1_[A6G]_F3.1_T3.1]	178 nM
UCUCUUUGUGUCUAUCUCUU (ssRNA) [Ib_S1_P3E.1_K3.1_C3.1_H3.1_[A4G]_A3.1_[A6C]_F3.1_T3.1]	983 nM

— article PMC9352680, “A comprehensive thermodynamic model for RNA binding by the Saccharomyces cerevisiae Pumilio protein PUF4”
